According to the nanobody polyreactivity screen of Harvey et al. (2022):

Assay: yeast display, Sf9 membrane polyspecificity reagent, FACS + sequencing; frameworks hold sequencing errors
Method in brief: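 Genes from sorted yeast were amplified by colony PCR, read by MiSeq 2 × 250 sequencing and filtered on CDR length. These cells carried a synthetic nanobody library in Saccharomyces cerevisiae BJ5465 and were sorted by FACS into low and high (top ~1%) gates on anti-HA and streptavidin fluorescence. Polyreactivity is labelled according to the gate of origin.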

Row | Sequence | polyreactivity (PSR sort gate)
1 | QVQLVESGGGLVQAGGSLRLSCAASGFIFYRNTMGWYRQAPGKEREFFAAITRSGGITRYADSVKGRFTISRDNAKNTVYLQMNSLKPEDTAVYYCAARRWIADPGRIMDYWGQGTQVTVSS | high polyreactivity
2 | QVQLVESGGGLVQAGGSLRLSCAASGRIFYSYAMGWYRQAPGKEREFVAAISYSGGSTYYADSVKGRFTISRDNAKNTVFLQMNSLKPEDTAVYYCAAKVKFYTYYYWGQGTQVTVSS | high polyreactivity
3 | QVQHVESGGGVVQAVGSLRLSCAASGYIFRTNAMGWYRQARGKERELVAAITRSGGRTYYADSVKGRFTISRDNAKNTVYLQMNSLKPEDTAVYYCAAGGRKPVITGDYWGQGTQVTVSS | high polyreactivity
4 | QVQLVESGGGLVQAGGSLRLSCAASGRTFTPYAMGWYRQAPGKERELVAAIDTSGGSTYADSVKGRFTISRDNAKNTVYLQMNSLKPEDTAVYYCAATRHSRVRGGDYWGQGTQVTVSS | low polyreactivity
5 | QVQLVESGGGLVQAGGSLRLTCAASGITFYSYAMGWYRQAPGKERELVAAITRSGGSTYYADSVKGRFTISRDNAKNTVYLQMNSLKPEDTAVYYCAADEGRVFSGGYDYWGQGTQVTVSS | high polyreactivity
6 | QVQLVESGGGLVQAGGSLRLSCAASGRTFWRYAMGWYRQAPGKERELVAAISVSGGTTYYADSVKGRFTISRDNAKNTVYLQMNSLKPEDTAVYYCAARYGSIYSILYYGFDYWGQGTQVTVSS | high polyreactivity
7 | QFQLQESGGGLVQAGGTLRLSCAASGSIFYVYGKGWYRQAPGKERELVAGINAGTNTNYADSVRGRFTISRDNAKNTVHLQMNSQKPVDTAVYYCAADGNGYQAHEYWGQGTQVTVSS | high polyreactivity
8 | QVQLVESGGGLVQAGGSLRLSCDASGRTSVIYAMGWYRQAPGKERELVASIRRGGSTSYADSVKGRFTISRDNAKNTVYLQMNSLKPEDTAVYYCASTFKSGMDYWGQGTQVTVSS | high polyreactivity
9 | QVQLVESGGGLVQAGGSLRLSCADTGLILVLNAMGCYRQAPGKERELVADITSGGSTYYADSVKGRFTISRDNAKNSVYLQMNSLKPEDTAVYYCATDQGGYYENDYWGQGTKVTVSS | low polyreactivity
10 | QVQLLESGGGLVQAGGSLRLSCAASGYTLRKYAMGWYRQAPGKERELVAAIRTSGGSTYYADSVKGRFTISRDNAKNTVYLQMNSLKPEDTAVYYCAAEWIFSYTWEYDYWGQGTQVTVSS | low polyreactivity
11 | QVQLVESGGGLVQAGGSLRLSCAASGRTFEGYAMGWYRQAPGKERELVAAISNSGGSTYYADSVKGRFTIARDNAKNTVYLQMNSLKPEDTAVYYCAALSRIPRYGYWGQGTQVTVSA | high polyreactivity
12 | QVQLVESGGGLVQAGGSLRLSCAASGSTSTRYAMGWYRPAPGKERELVAAISKSGGRTYYADSVKGRFTMSRDNAKNTVYLQMNSLKPEDTAVYYCNTVPGRYRTFDYWGQGTQVTVSS | high polyreactivity
13 | QVQLVESGGGLVQAGGSLRLSCAASGSIFKANTMGWSRQAPGKERELVAAISGSGGRTRYADSVRGRFTISRDNAKNTVYLQMNSLKPDVTAVYYCAATDRGGYYYWGQGTQVTVSS | high polyreactivity
14 | QVQLVESGGGLVQAGGSLRLSCAASGITFEYNAMGWYRQAPGKERELVATISGGARTYYADSVKGRFTISRDNAKNTVYLQMNSLKPEETAVYYCAAKYPWYGWFDHWGQGTQVTVSS | low polyreactivity
15 | QVQLVESGGGLVQAGGSLRLSCAASGRTFGYYAMGWYRQAPGKERELVAAISSAGSSTYYADSVKGRFTISRDNAKNTVYLQMNSLKPEDTAVYYCAASSRSFIRVYYWGQGTQVTVSS | high polyreactivity
16 | QVQHVDSGGGLVQAGGSLRLSCSASGINFPWYAMGWYRQAPGKERELVAAITSGGSTYYADSVKGRFTISRDNAKNTVYLEMYSLKPEDTAVYYCNADYYSWYLGAYLYDYWGQGTQVTVSS | high polyreactivity
17 | QVQLVESGGGLVQAGGSLRLSCADSGIIFYYNAMGWYRQAPGKEREFVAAIDDRGDSTYYADSVKGRFTISRDNAKNTVYLQMNSLKPEDTAVYYCAARDGYLYFDAMDYWGQGTLVTVSS | low polyreactivity
18 | QVQLVESGGGLVQAGGSLRLSCATSGRTFRFNAMGWYRQAPGKEREFVAAITSGGGTYYADSVKGRFTISRDNAKNTLDLQMNSLKPEDTAVYYCAAPRQYYLMDYWGQGTQVTVSS | low polyreactivity
19 | QVQLVESGGGLVQAGGSLRLSCAASGSTFYHYTMGWYRQAPGKERELVAAITYSGGRTYYADSVKGRFTISRDNAKNTVYLQKNSLKPEDTAVYYCAATYSTPGAGYYHYWGQGTQVTVSS | high polyreactivity
20 | QVQLVESGGGLVQAGGSLRLSCAASGQIFVRNAMGWYRQAPGKERELVARISSGGSTNYADSVKGRFTISRDNAKNTVYLQMISLKPEDTAVYYCAARVYKGWPTHYDYWGQGTQVTVSS | high polyreactivity
21 | QVQLVESGGGLVQAGGSLRLSCAASGSIFTYYAMGWYRQAPGKERELVAAISWNGGTTYYADSVKGLFTISRDNAKNTVYLQMNSLKPEDTAVYYCNKDGSYRYDYWGQGTQVTVSS | low polyreactivity
22 | QVQLVESGGGLVQAGGSLRLSCAASGSIFRPNAMGWYRQAPGKERELVAAITWSGDSTYYADSVKGRFTLSRDNAKNTVYRQMNSLKPVDTAVYYCATDPDYVLYRTAYYEFDYWGQGTHVTVSS | low polyreactivity

Row | Sequence | polyreactivity (PSR sort gate)
23 | QVQLVESGGGLVQAGGSLRLSCAASVRTFNLHAMGCYTQAPGKERELFAAITRSGDSTYYADSVKGSFTISRDKAKKTVYLQMKSLKPEDTAVYYCAKDNVTTPVVKVTFIPLDYWGQGTQVTVSS | low polyreactivity
24 | QVQLVESGGGLVQAGGSLRLSCAASGRTFNRYAMGWYRQAPGKERELVAAINWSGGSTYYADSVKARFTISRDIAKTTVYLPMNSLKPEDTAVYYCAADVWGWGLRPYDYWGQGTQVTVSS | low polyreactivity
25 | QVHLVESGGGLVQAGGSLRLSCAASGSIFHGYSMGWYRQAPGKERELVAAINSGDGSTYADSVKGRFTISRDNAKNTVYLQMNSLKPEDTAVYYCATDGTYYEHDYWGQATQVTVSS | low polyreactivity
26 | QVHLVETGGALVQAGGSLSISCAASGSIYHGYTMGWYRQAPGKERELVAAINSGDGSTYADSVKGRFTISRDNAKNTVYLQMNSLKQEDTAVYYCAALYAVYWPWYVREYDYWGHGTQVTVSS | low polyreactivity
27 | QVQLVESGGGLVQAGGSLRLSCAASGSTFVYYAMGWYRQAPGKERELVAAISRSGGNTYYADSVKGRFTISRDNAKNTVYLQMNSLKPEDTAVYYCAARSYGVQYYYWGQGTQVTVSS | high polyreactivity
28 | QVQLVESGGGLVQAGGSLRLSCAASGFIFLNYAMGWYRQAPGKERELVAAITSGGNTTYADSVKGRFTISRDNAKNTVYLQMNSLKPEDTAVYYCAADGWRAGPGDYWGQGTQVIVSS | low polyreactivity
29 | QVQLVESGGGLVQAGGSLRLSCAASGITYTDYDLGCYRQAPGKERELVAAISNGGGSTYYADSVKGRFTISRDNAKNTVYLQMNSLKPEDTGVYYWAAERVPSWWVEWGVAQWDDYWGQGTQVTVSS | low polyreactivity
30 | QVQLVESGGGLVQAGCSLLLICADSGFIFYGYVMGWYRQAPGKEMEWVAGITSSGTSTYADSVKGRFTISRDNAKNTVFLQMNSLKPEDTAAYYCAALRRQYGARDYDYWGQGTQVTVSA | low polyreactivity
31 | QVQLVESGGGLVQAGGSLRLSCAASGFTFSSNAMGWYRQAPGKERELVAAISRGGRTYYADSVKGRFTISRDNAKNTVYLQMNSLKPEDTAVYYCATDYVYRYDYWGQGTQVTVSS | high polyreactivity
32 | QVQLVESGGGLVQAGGSLRLSCAASGRIFRTYAMGWYRQAPGKERELVASISWGGGSRTYADSVKGRFTISRDNAKNTVYLQMNSLKPEDTGVYYCAADVHYTFGMDYWGQGTQVTVSS | high polyreactivity
33 | QVQLVESGGGLVQAGGSLRLSCAASGFTFDYNAMGWYRQAPGKEREFDAAISTGGSTKYADSVKGRFTISRDNAKNTVYLQMNSLKPEDTAVYYCNKQTTDRGFYDWKWSGFDYWGQGTQVTVSS | low polyreactivity
34 | QVQLVESGGGLVQAGGSLRLSCSASGNIFKRYTMGWYRQAPGKERELVAAISGGDSTNYADSVKGRFTISRDNAKKTVYLQMNCLKPEDTAVYYCAGGGLTLWHGYILGYWGQGTQVTVSS | low polyreactivity
35 | QVQLVESGGGLVQAGGSLRLICAASGSTFRKYVMGWYRQAPGKERELVAAITKNGGSTYYADSVKGRFTISRDNAKNTVYLQMNSLKPEDTAVYYCATLRTGRVGNQDYDYWGQGTQVTVSS | high polyreactivity
36 | QVQLVESGGGLVQAGGSLRLSCAASGSTFWYYAMGWYRQAPGKEREFVAAINRSGASTYYADSVKGRFTISRDNAKNTVYLEMNSLKPEDTAVYYCAAAVYLQYLDDPTYGYWGQGTQVTVSS | high polyreactivity
37 | QVQLVESGGGLVQAGGSLRLSCAASGRIGKYAMGWYRQAPGKERELVATISSTGTTNYADSVKGRFTISRDNAKNTVYLQMNSLKPEDTAVYYCAGRWEYVGYRRRYYRFDYWGQGTQVTVSS | high polyreactivity
38 | QVQLVESGGGLVQAGGSLRLSCAASGSTFFIYAMGWYRQAPGKERELVAAITSGGTYADSVKGRFTISRDNAKNTVYLQMNSLKPEDTAVYYCNAGNNVVVDYDYWGQGTQVTVSS | low polyreactivity
39 | QVQLVESGGGLVQAGGSLRISCAASGSTFFRNAMGRYRQAPGKERELVAAITWSGGSTYYADSVKGRFTISRDNAKNTVYLQMNSLKPEDTAVYYFAAGLSYWTPHYYPFDYWGQGTQVTVSS | low polyreactivity
40 | QVQLVESGGGLVQAGGSLRLSCAASGRTIRWYAMGWYRPARGKERELVAVISRGGGSTTYADSVKGRFTISRDNAKNTVYLQMNSLKPEDTAVYYCAAYWGRTGYYGYDYYYWGQGTQVTVSS | high polyreactivity
41 | QVQLVESGGGLVQAGGSLRLTCAASGRTLNPYAMGWYRQAPGKERELVAAITWRGGSTYYADSVKGRFTISRDNAKNTVYLQMNSLKPEDTAVYYCAAREYYYPYYYWGQGTQVTVSS | high polyreactivity
42 | QVQLVESGGGIVQAGGSLRLSCAASGRIFNRYAMGWYRQAPGKKWELVATISVSGANTYYADSVKGRFTISRDNAKNTVYLQMNSLKPEDTAVYSCNVKRGTIGGYYYWGQVTQVTVSS | high polyreactivity
43 | QVQLVESGGGLVQAGGSLRLSCAASGSTFSLYAMGWYRQAPGKERELVAAISWSDGSTYYADSVKGRFTISRDNAKNTVYLQMNSLKPEDTAVYYCAAESTVRPYEHSGDYWGQGTQVTVSS | low polyreactivity
